From patent US20230002480A1

Columns and labels:
Experiment in all cases: cell-based or functional assay
[1] = molecular target: HIV-1 Env of pseudovirus 62357_14_D3_4589 (HIV-1)
[2] = molecular target: HIV-1 Env of pseudovirus CNE5 (HIV-1)
[3] = molecular target: HIV-1 Env of pseudovirus Ce0682_E4 (HIV-1)
[4] = molecular target: HIV-1 Env of pseudovirus BJOX025000.01.1 (HIV-1)
[5] = molecular target: HIV-1 Env of pseudovirus CNE20 (HIV-1)
[6] = molecular target: HIV-1 Env of pseudovirus SC422661.8 (HIV-1)
[7] = molecular target: HIV-1 Env of pseudovirus ZM233M.PB6 (HIV-1)
[8] = molecular target: HIV-1 Env of pseudovirus Ce1176_A3 (HIV-1)
[9] = molecular target: HIV-1 Env of pseudovirus Du172.17 (HIV-1)
[10] = molecular target: HIV-1 Env of pseudovirus Ce1086_B2 (HIV-1)
[11] = molecular target: HIV-1 Env of pseudovirus Ce704809221_1B3 (HIV-1)
[12] = molecular target: HIV-1 Env of pseudovirus SC05_8C11_2344 (HIV-1)
[13] = molecular target: HIV-1 Env of pseudovirus ZM53M.PB12 (HIV-1)
[14] = molecular target: HIV-1 Env of pseudovirus A07412M1.vrc12 (HIV-1)
[15] = molecular target: HIV-1 Env of pseudovirus BJOX028000.10.3 (HIV-1)
[16] = molecular target: HIV-1 Env of pseudovirus 1054_07_TC4_1499 (HIV-1)
[17] = molecular target: HIV-1 Env of pseudovirus 6480.v4.c25 (HIV-1)
[18] = molecular target: HIV-1 Env of pseudovirus 6041.v3.c23 (HIV-1)
[19] = molecular target: HIV-1 Env of pseudovirus CNE58 (HIV-1)
[20] = molecular target: HIV-1 Env of pseudovirus 231965.c01 (HIV-1)
[21] = molecular target: HIV-1 Env of pseudovirus 6952.v1.c20 (HIV-1)
[22] = molecular target: HIV-1 Env of pseudovirus HIV-16055-2.3 (HIV-1)
[23] = molecular target: HIV-1 Env of pseudovirus X1254_c3 (HIV-1)
[24] = molecular target: HIV-1 Env of pseudovirus 3817.v2.c59 (HIV-1)
[25] = molecular target: HIV-1 Env of pseudovirus CNE30 (HIV-1)
[26] = molecular target: HIV-1 Env of pseudovirus X1632_S2_B10 (HIV-1)
[27] = molecular target: HIV-1 Env of pseudovirus Ce0393_C3 (HIV-1)
[28] = molecular target: HIV-1 Env of pseudovirus 0260.v5.c36 (HIV-1)
[29] = molecular target: HIV-1 Env of pseudovirus X2131_C1_B5 (HIV-1)
[30] = molecular target: HIV-1 Env of pseudovirus C3347.c11 (HIV-1)
[31] = molecular target: HIV-1 Env of pseudovirus 235-47 (HIV-1)
[32] = molecular target: HIV-1 Env of pseudovirus ZM197M.PB7 (HIV-1)
[33] = molecular target: HIV-1 Env of pseudovirus X2088_c9 (HIV-1)
[34] = molecular target: HIV-1 Env of pseudovirus 6540.v4.c1 (HIV-1)
[35] = molecular target: HIV-1 Env of pseudovirus ZM214M.PL15 (HIV-1)
[36] = molecular target: HIV-1 Env of pseudovirus ZM109F.PB4 (HIV-1)

PGDM1400 (antibody)
IC50 [1]: > 50 µg/mL | IC80 [1]: > 50 µg/mL | IC50, titer in TZM.bl cells [2]: < 0.001 µg/mL | IC80, titer in TZM.bl cells [2]: < 0.001 µg/mL | IC50 [3]: 0.01 µg/mL | IC80 [3]: 0.043 µg/mL | IC50, titer in TZM.bl cells [4]: 0.087 µg/mL | IC80, titer in TZM.bl cells [4]: 0.573 µg/mL | IC50 [5]: 0.004 µg/mL | IC80 [5]: 0.014 µg/mL | IC50 [6]: 0.436 µg/mL | IC80 [6]: 6.53 µg/mL | IC50 [7]: < 0.001 µg/mL | IC80 [7]: 0.001 µg/mL | IC50 [8]: 0.587 µg/mL | IC80 [8]: 11.6 µg/mL | IC50 [9]: 5.18 µg/mL | IC80 [9]: 22 µg/mL | IC50 [10]: > 50 µg/mL | IC80 [10]: > 50 µg/mL | IC50 [11]: 0.28 µg/mL | IC80 [11]: 1.1 µg/mL | IC50 [12]: 1.26 µg/mL | IC80 [12]: 3.59 µg/mL | IC50 [13]: 0.002 µg/mL | IC80 [13]: 0.011 µg/mL | IC50, titer in TZM.bl cells [14]: 0.032 µg/mL | IC80, titer in TZM.bl cells [14]: 0.127 µg/mL | IC50, titer in TZM.bl cells [15]: 0.072 µg/mL | IC80, titer in TZM.bl cells [15]: 0.963 µg/mL | IC50 [16]: > 50 µg/mL | IC80 [16]: > 50 µg/mL | IC50, titer in TZM.bl cells [17]: > 50 µg/mL | IC80, titer in TZM.bl cells [17]: > 50 µg/mL | IC50, titer in TZM.bl cells [18]: 0.013 µg/mL | IC80, titer in TZM.bl cells [18]: 0.289 µg/mL | IC50 [19]: 0.004 µg/mL | IC80 [19]: 0.014 µg/mL | IC50, titer in TZM.bl cells [20]: 0.025 µg/mL | IC80, titer in TZM.bl cells [20]: 1.28 µg/mL | IC50, titer in TZM.bl cells [21]: 0.501 µg/mL | IC80, titer in TZM.bl cells [21]: 11.8 µg/mL | IC50 [22]: < 0.001 µg/mL | IC80 [22]: 0.003 µg/mL | IC50, titer in TZM.bl cells [23]: > 50 µg/mL | IC80, titer in TZM.bl cells [23]: > 50 µg/mL | IC50, titer in TZM.bl cells [24]: > 50 µg/mL | IC80, titer in TZM.bl cells [24]: > 50 µg/mL | IC50 [25]: > 50 µg/mL | IC80 [25]: > 50 µg/mL | IC50, titer in TZM.bl cells [26]: 0.055 µg/mL | IC80, titer in TZM.bl cells [26]: 1.45 µg/mL | IC50 [27]: 0.015 µg/mL | IC80 [27]: 0.044 µg/mL | IC50 [28]: 0.033 µg/mL | IC80 [28]: 0.175 µg/mL | IC50, titer in TZM.bl cells [29]: 0.128 µg/mL | IC80, titer in TZM.bl cells [29]: 0.568 µg/mL | IC50, titer in TZM.bl cells [30]: 0.011 µg/mL | IC80, titer in TZM.bl cells [30]: 0.051 µg/mL | IC50, titer in TZM.bl cells [31]: 0.005 µg/mL | IC80, titer in TZM.bl cells [31]: 0.032 µg/mL | IC50 [32]: 0.063 µg/mL | IC80 [32]: 0.285 µg/mL | IC50, titer in TZM.bl cells [33]: > 50 µg/mL | IC80, titer in TZM.bl cells [33]: > 50 µg/mL | IC50, titer in TZM.bl cells [34]: 0.004 µg/mL | IC80, titer in TZM.bl cells [34]: 0.028 µg/mL | IC50 [35]: > 50 µg/mL | IC80 [35]: > 50 µg/mL | IC50 [36]: 0.057 µg/mL | IC80 [36]: 0.382 µg/mL
